Data taken from patent US12173292B2, “Controlling bacterial biofilms” (LANXESS Corporation, priority 2019, dated 2024).

Tests used:
D. desulfuricans biofilm = assay: Biofilm formation assay, crystal violet staining, 96-well plates; assay type: cell-based, Desulfovibrio desulfuricans (DSM 12129); details: at 24 hours; D. desulfuricans/pVLT33-Pdvu0304-dvu2956 vs D. desulfuricans/pVLT33-Pdvu0304
Experimental: (§1) D. vulgaris, D. desulfuricans and plasmid-transformed strains of both of these bacteria were grown anaerobically in Modified Baar's medium (300 μL) in 96-well micro-titer plates (Fisher Scientific, cat no. 07-200-656) for 24 hours at 30° C. without shaking, after which time the planktonic cell turbidity in each well was measured spectrophotometrically at 620 nm using a Sunrise™ microplate reader (TECAN, Switzerland). The plates were then incubated under the same conditions for an additional 24 to 48 hours, after which biofilm formation was measured by crystal violet staining. For biofilm dispersal assays, 24 hours after seeding the plates for biofilm growth, arabinose (10 mM) was added to strains harboring plasmids allowing arabinose-based induction of DVU2956 (SEQ ID NO:2). The arabinose-treated strains were then incubated anaerobically for another 24 hours without shaking, after which time biofilm formation was measured by crystal violet staining.
(§2) For crystal violet staining, the liquid portion of the cultures was discarded and the wells were washed by dipping the plates into 1 L of distilled water, after which the plates were dried with paper towel. […] The wells were then soaked for 5 minutes in 95% ethanol (300 μL) to dissolve the remaining (bound) crystal violet, which was then measured spectrophotometrically at 540 nm using the Sunrise™ microplate reader. […]

[1] = test system: established D. vulgaris biofilms; assay: Biofilm dispersal assay, arabinose induction, crystal violet staining; assay type: cell-based, Desulfovibrio vulgaris Hildenborough; details: after 24 hours; expression from inducible promoter PBAD on pMQ70; vs D. vulgaris/pMQ70
Experimental: as §1, §2

[2] = test system: Pdvu2956 (dvu2956 gene regulatory sequence); assay: Pdvu2956-mNeonGreen reporter fluorescence assay; assay type: cell-based, E. coli BL21(DE3); details: ectopic expression induced by 1 mM IPTG for 90 minutes; E. coli/pMQ70-Pdvu2956-mNeonGreen/pET27b-dvu2956; excitation 425 nm, emission 517 nm
From the text: A D. vulgaris dvu2956 gene regulatory sequence (SEQ ID NO:12), which comprises (in 5′ to 3′ direction) predicted promoter (SEQ ID NO:13) and 5′-untranslated region (5′-UTR) sequences (SEQ ID NO:14), was linked upstream of a synthetic ribosome binding site (RBS, SEQ ID NO:15) and a codon-optimized nucleotide sequence (SEQ ID NO:16) encoding a monomeric yellow-green fluorescent protein (mNeonGreen™, GenBank® Accession No. KC295282). This nucleotide sequence (provided as SEQ ID NO:17) was constructed in E. coli TG1 to render plasmid construct pMQ70-Pdvu2956-mNeonGreen (8164 bp) and then transferred into D. vulgaris (wild type) and E. coli strain BL21(DE3), the latter of which was already transformed with plasmid pET27b-dvu2956 (pET27b-dvu2956 allows for IPTG-induced expression of ectopic DVU2956 [SEQ ID NO:2]). PCR analyses confirmed the presence of plasmids pMQ70-Pdvu2956-mNeonGreen (in both strains) and pET27b-dvu2956 (in E. coli). Additional D. vulgaris and E. coli strains that were transformed with plasmid pMQ70 were prepared, and served as negative controls in the fluorescence assays described below.
A similar analysis was conducted to test whether Pdvu2956 can heterologously drive gene expression in bacteria other than sulfate-reducing bacteria. […]

D. vulgaris biofilm = assay: Biofilm formation assay, crystal violet staining, 96-well plates; assay type: cell-based, Desulfovibrio vulgaris Hildenborough
Experimental: as §1
For crystal violet staining, the liquid portion of the cultures was discarded and the wells were washed by dipping the plates into 1 L of distilled water, after which the plates were dried with paper towel. Crystal violet (0.1%, 300 μL) was added to each well and the plates were incubated for 20 minutes at room temperature. After discarding the bulk of the staining solution, the wells were washed three times with distilled water as above to remove unbound crystal violet. The wells were then soaked for 5 minutes in 95% ethanol (300 μL) to dissolve the remaining (bound) crystal violet, which was then measured spectrophotometrically at 540 nm using the Sunrise™ microplate reader. Normalized biofilm formation percentage values were calculated based on the ratio of […] to compare the degree of biofilm formation or dispersal.

[3] = test system: D. vulgaris biofilm cells; assay: Hydrogen sulfide production assay (methylene blue spectrophotometric); assay type: cell-based, Desulfovibrio vulgaris Hildenborough
Experimental: Hydrogen sulfide (H2S) by D. vulgaris strains was measured via a methylene blue spectrophotometric assay (Rabinowitz, 1978, Methods Enzymol. 53:275-277; incorporated herein by reference). Briefly, in this assay, N,N-dimethyl-p-phenylenediamine dihydrochloride is converted into methylthioninium chloride (methylene blue) by reacting with H2S dissolved in hydrochloride acid in the presence of ferric chloride. For a 96-well screening format, D. vulgaris was anaerobically grown in Modified Baar's medium in a 96-well plate (starting turbidity/OD of 0.05 at 600 nm, 150-μL culture volume) and incubated for 48 hours for biofilm formation. Anaerobically, 25 μL of each biofilm culture was transferred to another 96-well plate containing 225 μL deoxygenated water per well to render a 10-fold dilution of the transferred culture. Next, 5% N,N-dimethyl-p-phenylenediamine dihydrochloride (24.5 μL, prepared in 5.5 N HCl) (Sigma-Aldrich, cat. no. 536-46-9) was added to each well. After mixing the wells gently by pipetting and anaerobically incubating the mixes at room temperature for 3 minutes, the 96-well plate was removed from the anaerobic chamber and the absorbance at 670 nm of each well was measured using a Sunrise™ microplate reader.
For a more rigorous H2S assay, sealed glass vials were used to prevent H2S loss. D. vulgaris strains were grown anaerobically for 7 to 10 days in 10 mL of Modified Baar's medium with 2.5 g of sterilized glass wool to promote biofilm formation. Supernatants from these cultures were transferred by syringe to another sealed vial for dilution with 10 mL of PBS buffer. Anaerobically, 1 mL of diluted sample was then transferred by syringe to another sealed bottle with 125 μL of 12% sodium hydroxide and 3.25 mL of 1% zinc acetate (to fix the sulfide from H2S by forming ZnS precipitates). […] Water (2.125 mL) was added and mixed, and then at least 1 mL of each reaction was removed to determine absorbance at 670 nm.

[4] = at 48 hours, biofilm-specific expression from pVLT33-Pdvu0304-based construct in D. vulgaris, vs wild type and D. vulgaris/pVLT33-Pdvu0304

B1: DVU2956: D. vulgaris Hildenborough sigma 54-dependent enhancer-binding protein, 345 aa, SEQ ID NO:2, expressed in the bacteria from plasmids (protein)
chain: MSGKKLPHSGNSLPIEGTVSPQRETLQNGTDFLLLSGVMQRLRVLASQVASSDAPVLIHGETGTGKELFARLIHDMGIRAKKPFVAVNCGVHEGELFADKFFGHEQGAFTGAHRMSQGCFELASEGTLFLDEVGEIPGANQADFLRVLEEKRFRRIGGQRDIPFQARIVAASNRDLQEMVGQGQFRADLFYRLNVIPVVLPPLRARKEEVVPLARHFLTHYGDKYHRPGVRFAPETEQALAAYQWPGNVRELKNLVERIALLAPEGVLGPEHLPLELRSAAAVEVGVPHEVPEDLSLDRARREAEVRVILKAMRATGGNKGEAARLLGVSPRTLRYKFAEYALRF
modifications: Desulfovibrio vulgaris Hildenborough
D. desulfuricans biofilm
  inhibition of biofilm formation: 78±9%
[1]
  dispersal of established biofilms: 42±4%
[2]
  higher fluorescence signal vs negative control: ~14 fold
D. vulgaris biofilm; at 24 hours, D. vulgaris (dvu2956-) complemented with pMQ70-Pdvu2956-dvu2956, vs D. vulgaris (dvu2956-)/pMQ70-Pdvu2956
  inhibition of biofilm formation: 48±11%
[3]; 96-well culture, D. vulgaris/pVLT33-Pdvu0304-dvu2956 vs D. vulgaris/pVLT33-Pdvu0304
  decrease of H2S production: 51±2%
[3]; D. vulgaris (dvu2956-)/pMQ70-Pdvu2956-dvu2956 vs D. vulgaris (dvu2956-)/pMQ70-Pdvu2956
  decrease of H2S production: 45±13%
[3]; sealed vials, biofilm-specific expression
  inhibition of H2S production: 34.6±0.6%

B2: DVU2960: D. vulgaris Hildenborough protein, 474 aa, SEQ ID NO:4, expressed from pVLT33-Pdvu0304-dvu2960 (protein)
chain: MKQASLPAGARIAGLVGRELALGPVFDAIPTGLAVLDADLRICLMNRALETMTGFTTAEVAGIPCRHVLRASVCLHRCPTRTAVCDATGGNAPCHAQEGDLLNRHRRRIPVRLTLAPLHDAQGQLCGWLHTAEDLSLVRELEERCSKGQASGPLVGRSVVMEELFRTVQALAQTETPVLITGETGTGKDAVAETIHKASPRGREPFVKASLSSLPDFLVESELFGHRKGAFPGAEEDKPGRFRMAQGGTLCLSELGDLPPAMQGRLVTFLDEGLVWPVGATDPVRCDVRLLVASNLDLEAMVASGRLREDLYSRLAAVRIHLPPLRERGEDLEFLLSHYLAHFAARLRKTIHGFSGKSLRVLLAYGFPGNVRELKNIVEYAATLCTGEVVMPSHLPAYLFHTRPAAAPPRAIERDTPKGAAEDEASARSSVVDLERRLIVDALARAGNRKGEAARILGWGRSTLWRKMKQFGLE
modifications: Desulfovibrio vulgaris Hildenborough
D. vulgaris biofilm; [4]
  inhibition of biofilm formation: 95%

B3: DVU2962: D. vulgaris Hildenborough protein, 577 aa, SEQ ID NO:8, expressed from pVLT33-Pdvu0304-dvu2962 (protein)
chain: MKNPLGTMLSRLRSVFDVPDEIAPERYRMLRRKITLLMTAVSVLPLLILTAVSYHQYQSTLTREIVTPVRALVNKTRHSFELFLAERSSTVSLLAKTYSMAELSDEKNLNRIFLALKGEFPGFVDLGVIDGRGVQVGYVGPYDVRGKNYSEADWYNRTRVKGVYISDVFMGFRRFPHIAIAVQRMNPDGSSWMLRATIETTQFDRLIASMGLDPESDAFLINTAGVLQTNSRFYGNVLDVMPMPVPHLSYEPSIIDTEDPEGRQIFLSSAFLQNADFAIVAVKPKTEILRPWTSLRSDLLIFVAFSVALIISAAFGFTDMLVRRMRDSDERRIAAFVQIEHTQKLSSIGRLAAGVAHEINNPLAIINEKAGLAADLIALSQDFPQKERFSAIVEAISRSVDRCRSITHRLLGFSRRMDATYEQLDVNGILKETMSFLEQEAVHRSITIGTSLDAGLPRITSDRGQLQQVFLNIINNAFAAVQDGGSVTLTTFAADGGMVGVSIQDNGKGMSEEVQRHIFEPFFTTKKTAGTGLGMFITYGIIKRLGGEIGINSREGVGTTVTVYLPQDAPAPQSLEN
modifications: Desulfovibrio vulgaris Hildenborough
D. vulgaris biofilm; [4]
  inhibition of biofilm formation: 90%

B4: DVU2964: D. vulgaris Hildenborough protein, 219 aa, SEQ ID NO:10, expressed from pVLT33-Pdvu0304-dvu2964 (protein)
chain: MRENACVGCLTASASHELQNALAVIRESAGLMQDLIALGGENIPRRERIVELLSLIQQQVARGGELAGGLNTLGHAWEEDDGDLARILEEFVILAGRMGRMRSVTVGLAPGESGLRAPSAGLALRVLLFDLLQTCLEEAPGCALTFAPARRDGIPGIHLRVGLARCDATTDVLRRLDAQLARLGARKEPDNGHGTPARDEPDGVLYYFTACPSATGHRA
modifications: Desulfovibrio vulgaris Hildenborough
D. vulgaris biofilm; [4]
  inhibition of biofilm formation: 45%
